Source: PMC12868882, “Held out wings RNA binding activity in the cytoplasm during early spermatogenesis”

T1: HOW-STAR (STAR domain of Held out wings) (Drosophila melanogaster, UniProt O01367 72-266)
T1 sequence: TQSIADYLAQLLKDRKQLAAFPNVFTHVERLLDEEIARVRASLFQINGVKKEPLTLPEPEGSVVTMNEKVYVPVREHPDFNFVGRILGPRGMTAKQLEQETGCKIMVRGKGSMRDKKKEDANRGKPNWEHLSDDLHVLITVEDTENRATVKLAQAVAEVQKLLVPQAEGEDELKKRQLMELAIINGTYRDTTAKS


Each binder was assayed against T1, HOW-STAR (STAR domain of Held out wings) (assay: fluorescence anisotropy; apparent KD; RNA binding buffer: 20 mM Tris-HCl pH 7.5, 150 mM NaCl, 0.01% Triton X-100; 20 uL of 5 nM labelled RNA in about 60 uL; at least 45 min equilibration; temperature not stated). Conditions: protein: recombinant; tags: His6-GST removed by 3C protease; chain copies: 2; label: 3' 6-carboxyfluorescein.

In order of falling Kd:
1. AGCAGCUGACAAUU (ssRNA) [Hipk-RA A8G]  85.3 nM
2. AGCACCUAACAAUU (ssRNA) [Hipk-RA G5C]  20.4 nM
3. AGCAUCUAACAAUU (ssRNA) [Hipk-RA G5U]  12.4 nM
4. AGCAGCUAACAAUU (ssRNA) [Hipk-RA]  10.1 nM
5. ACACACUAACUCGUAACUAUG (ssRNA) [Lola + half-site]  9.25 nM
6. UACAACUAACAACUAACAGAU (ssRNA) [Hipk double motif]  7.46 nM
7. ACACACUAACUCGU (ssRNA) [Lola]  6.05 nM
8. AGCAACUAACAAUU (ssRNA) [Hipk-RA G5A]  4.65 nM

What follows are binders tested against T1, HOW-STAR (STAR domain of Held out wings) (assay: fluorescence anisotropy; apparent KD; text: did not bind in the low nanomolar range; RNA binding buffer: 20 mM Tris-HCl pH 7.5, 150 mM NaCl, 0.01% Triton X-100; 20 uL of 5 nM labelled RNA in about 60 uL; at least 45 min equilibration; temperature not stated). Conditions: protein: recombinant; tags: His6-GST removed by 3C protease; chain copies: 2; label: 3' 6-carboxyfluorescein.

Binder GUUGGCGUGUUUU (ssRNA) [Jvl] has a Kd of 803 nM.
